For experiment [1], the target named is T1, cystic fibrosis transmembrane conductance regulator (CFTR) inhibitory factor (Cif) (Pseudomonas aeruginosa).
T1 chain: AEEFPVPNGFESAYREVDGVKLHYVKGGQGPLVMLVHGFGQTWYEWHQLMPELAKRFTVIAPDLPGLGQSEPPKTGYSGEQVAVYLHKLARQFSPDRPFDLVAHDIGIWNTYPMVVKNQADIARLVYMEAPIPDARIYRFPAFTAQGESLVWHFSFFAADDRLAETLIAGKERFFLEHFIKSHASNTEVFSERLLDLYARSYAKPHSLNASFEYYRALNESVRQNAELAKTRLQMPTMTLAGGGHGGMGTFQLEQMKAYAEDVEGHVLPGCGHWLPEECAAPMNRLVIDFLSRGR
As to the kind of experiment: sandwich ELISA. (In general: In an ELISA, binding on a coated surface is turned into a signal by an enzyme label.)

In experiment [2] the target is cystic fibrosis transmembrane conductance regulator (CFTR) inhibitory factor (Cif) (Pseudomonas aeruginosa). As to the kind of experiment: cell-based or functional assay.

B1: VHH CLONE 205 (VHH)
VHH: DVQLQASGGGLVQPGGSLRLSCAATGSTDRIAFMGWYRQAPGKLRELVAGITSDGRTNYADDVDVSGRFTISRDSAKNMVYLQMNSLKPEDTAVYYCNADITLAMGGLRVYWGQGTQVTVSS
Usually IC50 stands for the concentration at which inhibition is half-maximal. With B1, half-maximal inhibition in experiment [1] (IC50) required 0.0207 µg/mL. Further, the % inhibition of Cif activity, [nab] tested 0.125 mg/mL in experiment [2] amounted to 0%.

B2: VHH CLONE 103 (VHH)
VHH: EVQLMESAGGLVRPGGSLRLSCVASGSIGDIYSMGWYRQAPGKQRELVATVGAGGLTDYGDSVLGRFTISRDKTKGTVSLEMNSLKPEDTAVYYCNADVSIGPTGLRVYWGQGTQVTVSS
In turn, B2 came in with a half-maximal inhibitory concentration (IC50) in experiment [1] of 0.0168 µg/mL. This molecule gave a % inhibition of Cif activity, [nab] tested 0.5 mg/mL in experiment [2] of 2%.

B3: VHH CLONE 213 (VHH)
VHH: EVQLVESVGGLVQPGGSLRLSCVASGNIGDIYTMGWYRQAPGKQRELVATVGDGGLTNFVDSVKGRFTISRDKSKGTVSLEMNSLKPEDTAVYYCNADVRIGPTGLRVYWGQGTQVTVSS
Molecule B3 had an IC50 in experiment [1] of 0.011 µg/mL. Besides, the % inhibition of Cif activity, [nab] tested 0.55 mg/mL in experiment [2] turned out to be 0%.

B4: VHH CLONE 220 (VHH)
VHH: EVQLVESGGGLVQPGGSLRLSCVASGNIGNIYTMGWYRQAPGKQRELVAAVGAGELTNYVDSVKGRFTISRDKSKGTVSLEMNSLKPEDTAVYYCNADVSIGPTGLRVYWGQGTQVTVSS
Take B4: the 50% inhibitory concentration (IC50) in experiment [1] turned out to be 0.0211 µg/mL. The % inhibition of Cif activity, [nab] tested 0.475 mg/mL in experiment [2] turned out to be 0%.

B5: VHH CLONE 302 (VHH)
VHH: QVKLQESGGGLVQPGGSLRLSCVASGNIGDIYTMGWYRQAPGKQRELVATVGDGGLTNFVDSVKGRFTISRDKSKGTVSLEMNSLKPEDTAVYYCNADVRIGPTGLRVYWGQGTQVTVSS
The molecule B5 registered an IC50 in experiment [1] of 0.0172 µg/mL. Besides, in experiment [2], the % inhibition of Cif activity, [nab] tested 0.5 mg/mL was 0%.

B6: VHH CLONE 108 (VHH)
VHH: EVQLVESGGGLVQPGGSLRLSCEATGNFDDRGIGWFRQAPGKEREGIACITTRGRTHYAESVEGRFTISTDIANNAVYLQMNSLKPEDTAVYYCAKAIRLTTDRTQCVAFPGVSWGRGTQVTVSS
For the molecule B6, in experiment [1], the midpoint of inhibition, the IC50, lay at 0.0098 µg/mL. The molecule also registered a % inhibition of Cif activity, [nab] tested 0.275 mg/mL in experiment [2] of 19%.

B7: VHH CLONE 320 (VHH)
VHH: DVQLQASGGGLVQPGGSLRLSCATSTSVFSITTLGWYRQAPGKQRELVASMKRGGDTNYADSVKGRFTISRDNARNTVFLQMNNLTTEDTAVYYCNAAILAYTGAVTNYWGQGTQVTVSS
B7 had a half-inhibitory concentration (IC50) in experiment [1] of 0.0061 µg/mL. The molecule also had a % inhibition of Cif activity, [nab] tested 0.23 mg/mL in experiment [2] of 9%.

B8: VHH CLONE 116 (VHH)
VHH: EVQLVESGGGLVQPGGSLRLSCTASGSILKIYTMDWYRQAPGKQRDLVATVSSRGDTDYTDSVKGRFTISRDDAKNTAYLQMSSLKPEDTAVYYCNFYIQSRTAPFNDYWGQGTQVTVSS
For the molecule B8, in experiment [1], the IC50 is 0.0312 µg/mL. In addition, in experiment [2], the % inhibition of Cif activity, [nab] tested 0.275 mg/mL turned out to be 11%.

Values taken from patent US20200231659A1 (published 2020).
